Experimental data taken from patent publication US20080050776A1.

What was measured:
Sortilin co-receptor = Sortilin co-receptor (UniProt O54861); assay: cell-based or functional assay
[1] = target: p75 neurotrophin receptor (p75NTR) (UniProt P07174); assay: cell-based or functional assay
Chain of UniProt P07174 (P07174 30-425): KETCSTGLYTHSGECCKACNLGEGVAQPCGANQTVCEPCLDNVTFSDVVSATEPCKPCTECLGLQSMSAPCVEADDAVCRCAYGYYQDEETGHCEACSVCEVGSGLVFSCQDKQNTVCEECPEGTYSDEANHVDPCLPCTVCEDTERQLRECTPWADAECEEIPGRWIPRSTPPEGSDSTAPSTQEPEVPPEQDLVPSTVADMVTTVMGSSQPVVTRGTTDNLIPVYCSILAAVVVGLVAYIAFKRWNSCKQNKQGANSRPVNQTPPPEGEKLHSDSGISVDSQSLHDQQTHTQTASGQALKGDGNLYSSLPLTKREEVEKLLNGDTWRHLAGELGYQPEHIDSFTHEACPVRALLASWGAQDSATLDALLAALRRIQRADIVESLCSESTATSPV

Chain of UniProt O54861 (O54861 74-825 limits assumed): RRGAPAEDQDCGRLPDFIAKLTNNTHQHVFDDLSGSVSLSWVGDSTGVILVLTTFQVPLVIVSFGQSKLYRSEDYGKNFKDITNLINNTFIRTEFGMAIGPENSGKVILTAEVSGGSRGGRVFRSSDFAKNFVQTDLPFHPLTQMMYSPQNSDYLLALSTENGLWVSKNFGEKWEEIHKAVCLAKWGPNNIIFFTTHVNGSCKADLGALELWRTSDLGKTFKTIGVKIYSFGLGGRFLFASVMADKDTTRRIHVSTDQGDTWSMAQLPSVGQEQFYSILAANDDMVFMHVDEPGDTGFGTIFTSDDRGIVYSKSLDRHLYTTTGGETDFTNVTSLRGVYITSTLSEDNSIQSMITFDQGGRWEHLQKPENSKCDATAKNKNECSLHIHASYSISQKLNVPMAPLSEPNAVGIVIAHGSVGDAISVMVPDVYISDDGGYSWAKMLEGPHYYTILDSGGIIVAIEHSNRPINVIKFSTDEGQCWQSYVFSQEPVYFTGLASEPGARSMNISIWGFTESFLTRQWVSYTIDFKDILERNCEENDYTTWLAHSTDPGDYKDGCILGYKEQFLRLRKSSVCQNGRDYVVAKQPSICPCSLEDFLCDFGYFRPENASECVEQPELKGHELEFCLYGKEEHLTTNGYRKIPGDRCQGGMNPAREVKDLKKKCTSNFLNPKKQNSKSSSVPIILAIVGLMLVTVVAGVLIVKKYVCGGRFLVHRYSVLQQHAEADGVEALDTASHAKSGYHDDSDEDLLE

Substance: proNGF123 (mutated mouse proNGF with mutations at all three processing sites) (ligand)
- cell death of PC-12 cells, trypan blue analysis 72 hours post treatment (2 nM) (Sortilin co-receptor): > 90%
- cell death of PC-12 cells, trypan blue analysis 72 hours post treatment (2 nM) [1]: > 90%
